Experiments:
[1] = molecular target: acrylodan-labeled C-terminal catalytic kinase/phosphatase domain of PNKP (human); assay: other fluorescence titration
[2] = molecular target: acrylodan-labeled FHA domain of PNKP (human) (UniProt Q96T60); assay: other fluorescence titration

Row | AC fluorescence quenching [1] [%] | AC fluorescence quenching [2] [%] | Kd [2] [µM] | stoichiometry N [2] | Kd [1] [µM] | Substance
1 | 8 | 50 | 0.0035 | 1.08 | – | CK2-phosphorylated XRCC1 (from UniProt P18887 1-633) (natural protein)
2 | – | – | – | – | 0.043 | non-phosphorylated XRCC1 (from UniProt P18887 1-633) (natural protein)
